Data from patent publication US20100209956A1.
Where a chain is given by its changes, count along the chain named. Numbers in names are those of the source. One block for each binder: values may come before it.

Target: soluble form of hepsin encompassing the entire extracellular domain (Arg45-Leu417) and a C-terminal His8 tag (human) (UniProt P05981)
Test: cell-based or functional assay

Chain of soluble form of hepsin encompassing the entire extracellular domain (Arg45-Leu417) and a C-terminal His8 tag (human) (P05981 45-162 limits assumed, chain 1 of 2): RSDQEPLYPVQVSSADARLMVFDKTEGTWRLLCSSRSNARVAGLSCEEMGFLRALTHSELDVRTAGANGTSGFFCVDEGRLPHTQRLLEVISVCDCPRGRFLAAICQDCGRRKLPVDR
Chain of soluble form of hepsin encompassing the entire extracellular domain (Arg45-Leu417) and a C-terminal His8 tag (human) (P05981 other isoform, or with tags, fused parts or gaps limits assumed, chain 2 of 2): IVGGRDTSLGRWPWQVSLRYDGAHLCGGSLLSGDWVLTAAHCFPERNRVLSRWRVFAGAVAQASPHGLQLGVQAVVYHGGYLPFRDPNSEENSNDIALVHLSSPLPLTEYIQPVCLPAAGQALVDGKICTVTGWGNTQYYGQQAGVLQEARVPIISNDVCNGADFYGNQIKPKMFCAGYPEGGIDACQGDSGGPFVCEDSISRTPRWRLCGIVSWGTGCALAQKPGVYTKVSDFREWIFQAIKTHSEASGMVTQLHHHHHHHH

IC50, inhibition of hepsin enzymatic activity towards S2366 (amidolytic assay): 18.2 nM
B1: sHAI-1B(K401A) (protein, UniProt O43278 36-465, looked up)
chain: GPPPAPPGLPAGADCLNSFTAGVPGFVLDTNASVSNGATFLESPTVRRGWDCVRACCTTQNCNLALVELQPDRGEDAIAACFLINCLYEQNFVCKFAPREGFINYLTREVYRSYRQLRTQGFGGSGIPKAWAGIDLKVQPQEPLVLKDVENTDWRLLRGDTDVRVERKDPNQVELWGLKEGTYLFQLTVTSSDHPEDTANVTVTVLSTKQTEDYCLASNKVGRCRGSFPRWYYDPTEQICKSFVYGGCLGNKNNYLREEECILACRGVQGGPLRGSSGAQATFPQGPSMERRHPVCSGTCQPTQFRCSNGCCIDSFLECDDTPNCPDASDEAACEKYTSGFDELQRIHFPSDKGHCVDLPDTGLCAESIPRWYYNPFSEHCARFTYGGCYGNKNNFEEEQQCLESCRGISKKDVFGLRREIPIPSTGSVE

IC50, inhibition of hepsin enzymatic activity towards S2366 (amidolytic assay): > 1000 nM | activity in amidolytic assays as percent of wildtype and KD2 mutant: < 1% | fold reduction of inhibitory activity against wildtype sHAI-1B (amidolytic assay): > 47 fold
B2: sHAI-1B(R260A) (protein, UniProt O43278 36-465, looked up)
chain: B1 chain with R225A, A366K

IC50, inhibition of hepsin enzymatic activity towards S2366 (amidolytic assay): 1.3 nM
B3: soluble form of HAI-2 (sHAI-2), extracellular domain Ala28-Lys197 with a C-terminal His8 tag with a Gly spacer (protein, human, not shown: small tags and cut ends)
chain: ADRERSIHDFCLVSKVVGRCRASMPRWWYNVTDGSCQLFVYGGCDGNSNNYLTKEECLKKCATVTENATGDLATSRNAADSSVPSAPRRQDSEDHSSDMFNYEEYCTANAVTGPCRASFPRWYFDVERNSCNNFIYGGCRGNKNSYRSEEACMLRCFRQQENPPLPLGSKHHHHHHHH
